Assay results taken from patent US20250136687A1 (SHANDONG SIMCERE BIOPHARMACEUTICAL, published 2025).
Where two headings read alike, the source gives them in different places.

T1: monkey CD3ε protein (monkey, UniProt Q95LI5 22-117, limits assumed)
T1 sequence (looked up): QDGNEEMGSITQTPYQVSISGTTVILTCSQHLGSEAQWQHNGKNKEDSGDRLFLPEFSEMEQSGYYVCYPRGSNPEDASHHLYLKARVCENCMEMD


How the values were obtained:
[1] = molecular target: T2, human CD3 on the cell surface (Jurkat cells, expanded human T cells, Jurkat-Lucia NFAT cells, human PBMC) (human, UniProt P07766 23-207; P04234 22-171; P09693 23-182); assay: FACS, expanded human T cells
T2 construct: whole, on cells; Endogenous CD3 within the TCR-CD3 complex on cells (also zeta chains and TCR); the cell type is named under assay
T2 sequence (P07766 23-207, chain 1 of 3): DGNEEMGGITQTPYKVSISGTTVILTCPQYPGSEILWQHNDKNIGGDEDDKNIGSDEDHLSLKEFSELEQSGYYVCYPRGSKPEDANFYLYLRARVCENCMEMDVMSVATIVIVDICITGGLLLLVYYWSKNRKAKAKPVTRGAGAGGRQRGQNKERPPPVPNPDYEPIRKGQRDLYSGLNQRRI
T2 sequence (P04234 22-171, chain 2 of 3): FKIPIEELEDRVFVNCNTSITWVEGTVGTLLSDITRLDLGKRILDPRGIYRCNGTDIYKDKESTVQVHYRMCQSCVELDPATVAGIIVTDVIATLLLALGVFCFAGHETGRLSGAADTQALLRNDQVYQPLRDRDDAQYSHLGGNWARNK
T2 sequence (P09693 23-182, chain 3 of 3): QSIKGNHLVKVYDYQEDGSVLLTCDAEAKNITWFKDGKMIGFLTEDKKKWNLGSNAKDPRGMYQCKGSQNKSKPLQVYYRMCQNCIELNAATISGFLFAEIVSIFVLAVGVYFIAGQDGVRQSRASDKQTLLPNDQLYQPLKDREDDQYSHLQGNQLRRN
Procedure: (§1) The binding of the chimeric antibodies to CD3 on the cell surface was analyzed by detecting the binding of the antibodies to Jurkat cells and human T cells. Suspension cells Jurkat cells were scale-up cultured in T-75 cell culture flasks to the logarithmic growth phase, the supernatant of the medium was discarded by centrifugation, and the cell pellet was washed 2 times with PBS for later use. The expanded human T cells were washed 2 times with PBS for later use. After counting the cells in the previous step, the cell pellet was resuspended with [PBS+2% (w/w) BSA] blocking solution to 4×10⁶ cells/ml, and added to a 96-well FACS reaction plate at 50 μl/well, and then the chimeric antibody to be tested was added at 50 μl/well, and incubated at 4° C. for 1 h. The cells were centrifuged and washed 3 times with a PBS buffer. […] The cells were centrifuged and washed 5 times with PBS, and FACS (FACS Canto™, purchased from BD Company) was used for detection and result analysis. Data analysis was performed by software (CellQuest) to obtain the mean fluorescence […] (MFI) of the cells. And then software (GraphPad Prism8) was used for analysis, data fitting, and EC50 value calculation. The same method was used to simultaneously detect the binding of the chimeric antibodies to endogenous CD3 negative cells MOLT4 cells.
The expanded human PBMC cells were collected, and FACS detection and data analysis were performed according to the method in Example 5.1.

[2] = molecular target: T3, recombinant human CD3ε-ECD His protein (human, UniProt P07766 23-126); assay: ELISA, coated antigen
T3 construct: extracellular domain; also called human CD3ε-His; CD3ε antigen protein; not shown: His tag
T3 sequence (P07766 23-126): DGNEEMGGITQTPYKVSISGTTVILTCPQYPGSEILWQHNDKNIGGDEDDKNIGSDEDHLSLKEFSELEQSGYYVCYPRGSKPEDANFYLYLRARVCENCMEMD
Procedure: (§2) To detect the binding activity of the humanized antibodies to CD3 protein, CD3 protein was diluted with PBS to the final concentration of […], then added to a 96-well ELISA plate at 50 μL/well, and the plate was sealed with a plastic film, and incubated overnight at 4° C. On the next day, the plate was washed 2 times with PBS, and a blocking solution [PBS+2% (v/v) BSA] was added for blocking at room temperature for 2 h. The blocking solution was poured off, and the antibody (initial concentration of 100 nM, and gradient dilution at 1:10) or a negative control antibody was added at 50 µl/well. After incubation at 37° C. for 2 h, the plate was washed 3 times with PBS. […] TMB substrate was added at 50 μl/well, and incubated at room temperature for 10 min, and then a stop solution (1.0 N HCl) was added at 50 μl/well. The OD450 nm values were read by an ELISA microplate reader (Multimode Plate Reader, EnSight, purchased from Perkin Elmer).

[3] = molecular target: T4, human CD3ε/δ-His (human, UniProt P07766 23-126; P04234 22-105); assay: ELISA, coated antigen
T4 construct: Bought recombinant heterodimer with His tag; also called human CD3ε/δ protein
T4 sequence (P07766 23-126, stated change not applied, form in doubt, chain 1 of 2): as the sequence (P07766 23-126) above
T4 sequence (P04234 22-105, stated change not applied, form in doubt, chain 2 of 2): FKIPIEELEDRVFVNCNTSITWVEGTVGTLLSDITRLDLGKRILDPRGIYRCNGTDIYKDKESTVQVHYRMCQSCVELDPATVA
Procedure: as §2

[4] = molecular target: T5, monkey CD3ε/δ-His (monkey, UniProt Q95LI5 22-117; Q95LI8 22-105); assay: ELISA, coated antigen
T5 construct: Bought recombinant heterodimer with His tag
T5 sequence (Q95LI8 22-105, stated change not applied, form in doubt, chain 2 of 2, one chain of several): as the sequence (P04234 22-105, stated change not applied, form in doubt, chain 2 of 2) above, with I5V, N15K, I20V, S32T, D33N, I34N, T64A, S74N, V83L counted along it
Procedure: as §2
(§3) To detect the binding activity of the humanized antibodies to monkey CD3 protein, CD3 protein was diluted with PBS to the final concentration of […], and then added to a 96-well ELISA plate at 50 μl/well.

[5] = molecular target: T1, monkey CD3ε protein; assay: ELISA, coated antigen
Procedure: as §2, §3

[6] = molecular target: T6, cynomolgus monkey CD3 on the surface of expanded monkey T cells (cynomolgus monkey, UniProt Q95LI5 22-198; Q95LI8 22-171; Q95LI7 23-181); assay: FACS, expanded monkey T cells
T6 construct: whole, on cells; Endogenous CD3 within the TCR-CD3 complex on T cells expanded from cynomolgus monkey PBMC
T6 sequence (Q95LI5 22-198, chain 1 of 3): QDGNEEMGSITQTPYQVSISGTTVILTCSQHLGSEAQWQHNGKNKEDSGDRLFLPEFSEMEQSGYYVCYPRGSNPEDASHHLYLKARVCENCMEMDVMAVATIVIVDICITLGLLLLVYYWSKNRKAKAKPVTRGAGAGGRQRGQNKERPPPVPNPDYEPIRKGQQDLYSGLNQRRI
T6 sequence (Q95LI8 22-171, chain 2 of 3): as the sequence (P04234 22-171, chain 2 of 3) above, with I5V, N15K, I20V, S32T, D33N, I34N, T64A, S74N, V83L, H141R counted along it
T6 sequence (Q95LI7 23-181, chain 3 of 3): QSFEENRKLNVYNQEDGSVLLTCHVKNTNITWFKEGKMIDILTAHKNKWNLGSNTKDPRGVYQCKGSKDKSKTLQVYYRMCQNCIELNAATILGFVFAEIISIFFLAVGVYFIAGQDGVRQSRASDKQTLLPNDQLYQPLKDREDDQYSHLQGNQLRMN
Procedure: as §1
The expanded monkey T cells were collected, and FACS detection and data analysis were performed according to the method in Example 5.1.

[7] = molecular target: T3, recombinant human CD3ε-ECD His protein; assay: SPR, antibody captured on Protein A chip
Procedure: (§4) Running buffer was HBS-EP+(10 mM HEPES, 150 mM NaCl, 3 mM EDTA, 0.05% surfactant P20) (GE Healthcare; BR-1006-69). The flow-through cell was set to 25° C. The sample block was set to 16° C. Both were pretreated with the running buffer. In each cycle, an antibody to be detected was first captured with a Protein A chip, and then a single concentration of CD3ε antigen protein was injected. The binding and dissociation processes of the antibody and the antigen protein were recorded, and finally Glycine pH 1.5 (GE Healthcare; BR-1003-54) was used to complete chip regeneration. The binding was measured by injecting different concentrations of recombinant human CD3ε proteins in a solution for 240 s with a flow rate of 30 μL/min. The concentration started from 200 nM (see the detailed results for the actual concentration in the test) and was diluted at 1:1, making a total of 5 concentrations. The dissociation phase was monitored for up to 600 s and was triggered by switching from sample solution to running buffer. The surface was regenerated by washing with a 10 mM glycine solution (pH 1.5) for 30 s at a flow rate of 30 μL/min. Bulk refractive index difference was corrected by subtracting the response obtained from the goat anti-human Fc surface, and the blank injection was subtracted at the same time (=double reference). For calculation of apparent KD value and other kinetic parameters, Langmuir 1:1 model was used.

[8] = molecular target: T4, human CD3ε/δ-His; assay: SPR, antibody captured on Protein A chip
Procedure: as §4

[9] = molecular target: T6, cynomolgus monkey CD3 on the surface of …; assay: FACS, expanded monkey T cells; remark: listed apart in the source
Procedure: as §1
FACS detection and data analysis were performed on the cryopreserved monkey T cells of Example 2.4 according to the method in Example 5.1.

[10] = molecular target: T2, human CD3 on the cell surface (Jurkat …); assay: FACS, expanded human T cells; remark: listed apart in the source
Procedure: as §1

[11] = molecular target: T2, human CD3 on the cell surface (Jurkat …); assay: cell-based or functional assay
[12] = molecular target: T2, human CD3 on the cell surface (Jurkat …); assay: FACS, Jurkat cells
Procedure: as §1

EC50 [1] [pM] | max_MFI [1] [MFI] | EC50 [2] [pM] | max-OD450 [2] [OD450] | EC50 [3] [pM] | max-OD450 [3] [OD450] | EC50 [4] [pM] | max-OD450 [4] [OD450] | EC50 [5] [pM] | max-OD450 [5] [OD450] | EC50 [6] [pM] | max_MFI [6] [MFI] | Kd [7] [pM] | koff [7] [s⁻¹] | kon [7] [M⁻¹ s⁻¹] | Kd [8] [pM] | koff [8] [s⁻¹] | kon [8] [M⁻¹ s⁻¹] | Binder | also measured
49700 | 11300 | 33.7 | 3.1 | 530 | 2.93 |  |  |  |  |  |  |  |  |  |  |  |  | 6-35.22-H1-L1 humanized antibody (antibody, human IgG1, kappa, V domains shown) VH: EVQLVESGGGVVQPGRSLRLSCAASGFTFTDYYMSWVRQAPGKGLEWVAMSRNKAKGHTIEYSSSVKGRFTISRDNSKNTLYLQMNSLRAEDTAVYYCARDTYESYDGYFDVWGQGTTVTVSS VL: DIVMTQSPDSLAVSLGERATINCKSSQSLFNSRSRKNYLAWYQQKPGQTPKLLIYWASIRESGVPDRFSGSGSGTDFTLTISSLQAEDVAVYYCKQSYYLYTFGQGTKLEIKR | 
1520 | 35900 | 20.6 | 3.16 | 190 | 3.01 | 3.32 | 3.08 | 2.63 | 2.99 | 920 | 25400 | 806 | 0.000214 | 266000 | 27400 | 0.00983 | 358000 | 5-7.13-H1a-L2 humanized antibody (antibody, human IgG1, kappa, V domains shown) VH: EVQLVQSGAEVKKPGASVKVSCKASGYTFTSYWVHWVRQAPGQRLEWMGNINPSDGVTNYNEKFKSRVTITVDKSASTAYMELSSLRSEDTAVYYCTRDAYGQYYFDNWGQGTTVTVSS VL: DIVMTQTPLSLPVTPGEPASISCKSSQSLLNSRTRKNYLAWYLQKPGQSPQLLIYWASVRDSGVPDRFSGSGSGTDFTLKISRVEAEDVGVYYCIQSYYLRTFGGGTKVEIKR | 
 |  |  |  |  |  |  |  |  |  |  |  |  |  |  |  |  |  | 6-35.22 human-murine chimeric antibody (antibody, human IgG1, kappa, V domains shown, Human IgG1 chimera) VH: EVKLVESGGGLVQPGASLSLSCAASGFTFTDYYMSWVRQPPGKALEWLAMSRNKAKGHTIEYSSSVKGRFTISRDNSQSILYLQMNALRAEDSATYYCARDTYESYDGYFDVWGAGTTVIVSS VL: DIVMSQSPSSLAVSAGETVTMSCKSSQSLFNSRSRKNYLAWYQQKPGQTPKLLIYWASIRESGVPDRFTGSGSGTDFTLTISSVQAEDLAVYYCKQSYYLYTFGSGTKLEIKR | EC50 [9]: 4180 pM; MFI_Max [9]: 18200 MFI; EC50 [10]: 3620 pM; MFI_Max [10]: 8900 MFI; EC50 (nM), luciferase reporter, Jurkat-Lucia NFAT cells [11]: 0.82 nM; Maximum response value (RLU) [11]: 27000 RLU; EC50 [12]: 8300 pM; MFI_Max [12]: 26700 MFI
9450 | 10000 | 39.5 | 3.12 | 320 | 3.15 | 55.2 | 3.13 | 8.59 | 3.01 | 7840 | 10200 | 1290 | 0.000369 | 286000 | 145000 | 0.0335 | 231000 | 7-35.6-H2-L3 humanized antibody (antibody, human IgG1, lambda, V domains shown) VH: EVQLVESGGGLVQPGGSLKLSCAASGFTFNTYAMNWVRQASGKGLEWVGRIRSKINNYATYYGDSVKDRFTISRDDSKNTFYLQMNSLKTEDTAVYYCVIHENYGSISWFAYWGQGTLVTVSS VL: ETVVTQEPSLTVSPGGTVTLTCRSSTGAVTTSNYANWVQQKPGQAFTGLIGGTNNRAPWTPARFSGSLLGGKAALTLSGVQPEDEAEYYCALWYSNHWVFGGGTKLTVLG | 
7050 | 11500 | 36.3 | 3.11 | 220 | 3.16 | 19.3 | 3.16 | 4.75 | 3.1 | 2840 | 11800 | 908 | 0.000249 | 274000 | 67400 | 0.0317 | 469000 | 8-18.1-H1-L2 humanized antibody (antibody, human IgG1, kappa, V domains shown) VH: EVQLVQSGAEVKKPGASVKVSCKASGYTFTMNTMHWVRQAPGQRLEWMGYINPYSGYTKYNQIFKDRVTITADKSASTAYMELSSLRSEDTAVYYCLRGGEGVWGQGTTVTVSS VL: DVVMTQSPLSLPVTLGQPASISCKSSQSLLDSDGKTYLNWLQQRPGQSPRRLIYLVSELGSGVPDRFSGSGSGTDFTLKISRVEAEDVGVYYCWQGTHFPRTFGGGTKVEIKR | 
